Paper doi:10.1101/131276

Legend:
Assay in all cases: non-reducing SDS-PAGE and Western blot
[1] = molecular target: proGbb, the uncleaved Gbb proprotein from gbb mNSmS1, HA-tagged (Drosophila)
[2] = molecular target: Gbb38 from gbb mS1, HA-tagged (Drosophila)
[3] = molecular target: Gbb15 made by cleavage at the atypical S0 site (from gbb mS1 or gbb mNSmS1), HA-tagged (Drosophila)
[4] = molecular target: proGbb, the uncleaved Gbb proprotein from gbb mNSmS1mS0, HA-tagged (Drosophila)

Gbb15 made by cleavage at the atypical S0 site (from gbb mS1 or gbb mNSmS1), HA-tagged (ligand), sequence (P27091 37-455): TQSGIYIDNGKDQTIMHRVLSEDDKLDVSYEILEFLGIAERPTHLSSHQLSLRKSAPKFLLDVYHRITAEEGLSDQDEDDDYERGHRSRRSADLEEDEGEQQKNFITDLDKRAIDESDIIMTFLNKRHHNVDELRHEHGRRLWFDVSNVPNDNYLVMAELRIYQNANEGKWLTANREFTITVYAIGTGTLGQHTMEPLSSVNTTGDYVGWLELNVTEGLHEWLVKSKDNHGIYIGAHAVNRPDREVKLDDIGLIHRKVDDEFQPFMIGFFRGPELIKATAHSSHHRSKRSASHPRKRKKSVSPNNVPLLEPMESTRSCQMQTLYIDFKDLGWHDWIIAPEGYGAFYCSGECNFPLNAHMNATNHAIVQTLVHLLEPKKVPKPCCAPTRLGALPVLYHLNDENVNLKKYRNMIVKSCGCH

In the case of “proGbb, the uncleaved Gbb proprotein from gbb mNSmS1, HA-tagged (natural protein)”, the stoichiometry N [1] is reported as 2.

Substance Gbb38 from gbb mS1, HA-tagged (ligand) has a stoichiometry N [2] of 2.

“Gbb15 made by cleavage at the atypical S0 site (from gbb mS1 or gbb mNSmS1), HA-tagged (ligand)” gave a stoichiometry N [3] of 2.

“proGbb, the uncleaved Gbb proprotein from gbb mNSmS1mS0, HA-tagged (natural protein)” gave a stoichiometry N [4] of 2.
